Experimental data: patent US8173604

Tests used:
[1] = tested on: 4060 peptide (eighteen-residue peptide, residues 40-57 of human Skp2)
[2] = target: insect cell-produced and purified GST-cyclin A/Cdk2 (kinase reactions, ~3 nM) (UniProt P20248); experiment: kinase inhibition: purified proteins, ~3 nM GST-cyclin A/Cdk2, Rb-C phosphorylation, non-linear least squares (FIG. 7F)

purified p27 (GST cleaved off by thrombin), sequence (P46527 whole entry): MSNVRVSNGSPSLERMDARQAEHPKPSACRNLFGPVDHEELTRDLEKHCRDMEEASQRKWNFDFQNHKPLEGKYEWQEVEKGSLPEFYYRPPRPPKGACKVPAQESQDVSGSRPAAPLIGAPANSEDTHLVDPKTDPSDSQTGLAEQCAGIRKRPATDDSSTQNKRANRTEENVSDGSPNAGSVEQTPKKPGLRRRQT

Substance | IP-kinase assay, phosphorylation of Rb-C by cyclin A/Cdk2 [1] | IP-kinase assay, phosphorylation of Rb-C by cyclin A/Cdk2 (Peptide RxL) | Ki [2]
myc-cyclin A/Cdk2 (293T cell extracts transfected with myc-cyclin A and Cdk2) | the 4060 peptide did not | the RxL peptide inhibited the kinase activity of cyclin A/Cdk2 towards Rb-C as expected | –
purified p27 (GST cleaved off by thrombin) (from UniProt P46527 1-198) (other; other documents disagree on this pair) | – | – | 2 nM
